Numbered stars: 1 amine (or outer) side, 2 acyl side, 3 side chain; on linkers, the order of the positions; unused ones are H or OH. Bridge positions count the residues as written; N and C are the ends. Square brackets hold non-standard residues; d marks the D form. * marks the point of attachment. C20 diacid = O=C(O)CCCCCCCCCCCCCCCCCCC(=O)*; γGlu = O=C(O)[C@H](CCC(=O)[*:2])N[*:1]; Hyp = O=C(O)[C@@H]1C[C@@H](O)CN1; NMeI = CC[C@H](C)[C@H](NC)C(=O)O; Aad = N[C@@H](CCCC(=O)O)C(=O)O; Orn = NCCC[C@H](N)C(=O)O; Sar = CNCC(=O)O
B1: Compound 7 (peptide)
peptide: {C20 diacid-γGlu}-RDGTAT[Orn]ATERLAHFLHRSSF[Sar]A[NMeI]LSSTEVGSNTP-NH2
modifications: lactam 2-7
SMILES: CC[C@H](C)[C@@H](C(=O)N[C@@H](CC(C)C)C(=O)N[C@@H](CO)C(=O)N[C@@H](CO)C(=O)N[C@H](C(=O)N[C@@H](CCC(=O)O)C(=O)N[C@H](C(=O)NCC(=O)N[C@@H](CO)C(=O)N[C@@H](CC(N)=O)C(=O)N[C@H](C(=O)N1CCC[C@H]1C(N)=O)[C@@H](C)O)C(C)C)[C@@H](C)O)N(C)C(=O)[C@H](C)NC(=O)CN(C)C(=O)[C@H](Cc1ccccc1)NC(=O)[C@H](CO)NC(=O)[C@H](CO)NC(=O)[C@H](CCCNC(=N)N)NC(=O)[C@H](Cc1c[nH]cn1)NC(=O)[C@H](CC(C)C)NC(=O)[C@H](Cc1ccccc1)NC(=O)[C@H](Cc1c[nH]cn1)NC(=O)[C@H](C)NC(=O)[C@H](CC(C)C)NC(=O)[C@H](CCCNC(=N)N)NC(=O)[C@H](CCC(=O)O)NC(=O)[C@@H](NC(=O)[C@H](C)NC(=O)[C@@H]1CCCNC(=O)C[C@H](NC(=O)[C@H](CCCNC(=N)N)NC(=O)CC[C@H](NC(=O)CCCCCCCCCCCCCCCCCCC(=O)O)C(=O)O)C(=O)NCC(=O)N[C@@H]([C@@H](C)O)C(=O)N[C@@H](C)C(=O)N[C@@H]([C@@H](C)O)C(=O)N1)[C@@H](C)O
B2: Ref. 2 (peptide)
peptide: {C20 diacid-γGlu}-RCGTATCATERLAHFLQRSSF[Sar]A[NMeI]LSSTEVGSNT[Hyp]-NH2
modifications: disulfide 2-7
SMILES: CC[C@H](C)[C@@H](C(=O)N[C@@H](CC(C)C)C(=O)N[C@@H](CO)C(=O)N[C@@H](CO)C(=O)N[C@H](C(=O)N[C@@H](CCC(=O)O)C(=O)N[C@H](C(=O)NCC(=O)N[C@@H](CO)C(=O)N[C@@H](CC(N)=O)C(=O)N[C@H](C(=O)N1C[C@H](O)C[C@H]1C(N)=O)[C@@H](C)O)C(C)C)[C@@H](C)O)N(C)C(=O)[C@H](C)NC(=O)CN(C)C(=O)[C@H](Cc1ccccc1)NC(=O)[C@H](CO)NC(=O)[C@H](CO)NC(=O)[C@H](CCCNC(=N)N)NC(=O)[C@H](CCC(N)=O)NC(=O)[C@H](CC(C)C)NC(=O)[C@H](Cc1ccccc1)NC(=O)[C@H](Cc1c[nH]cn1)NC(=O)[C@H](C)NC(=O)[C@H](CC(C)C)NC(=O)[C@H](CCCNC(=N)N)NC(=O)[C@H](CCC(=O)O)NC(=O)[C@@H](NC(=O)[C@H](C)NC(=O)[C@@H]1CSSC[C@H](NC(=O)[C@H](CCCNC(=N)N)NC(=O)CC[C@H](NC(=O)CCCCCCCCCCCCCCCCCCC(=O)O)C(=O)O)C(=O)NCC(=O)N[C@@H]([C@@H](C)O)C(=O)N[C@@H](C)C(=O)N[C@@H]([C@@H](C)O)C(=O)N1)[C@@H](C)O
B3: Compound 6 (peptide)
peptide: {C20 diacid-γGlu}-RDGTAT[Orn]ATERLAHFLQRF[Sar]A[NMeI]LSSTEVGSNT[Hyp]-NH2
modifications: lactam 2-7
SMILES: CC[C@H](C)[C@@H](C(=O)N[C@@H](CC(C)C)C(=O)N[C@@H](CO)C(=O)N[C@@H](CO)C(=O)N[C@H](C(=O)N[C@@H](CCC(=O)O)C(=O)N[C@H](C(=O)NCC(=O)N[C@@H](CO)C(=O)N[C@@H](CC(N)=O)C(=O)N[C@H](C(=O)N1C[C@H](O)C[C@H]1C(N)=O)[C@@H](C)O)C(C)C)[C@@H](C)O)N(C)C(=O)[C@H](C)NC(=O)CN(C)C(=O)[C@H](Cc1ccccc1)NC(=O)[C@H](CCCNC(=N)N)NC(=O)[C@H](CCC(N)=O)NC(=O)[C@H](CC(C)C)NC(=O)[C@H](Cc1ccccc1)NC(=O)[C@H](Cc1c[nH]cn1)NC(=O)[C@H](C)NC(=O)[C@H](CC(C)C)NC(=O)[C@H](CCCNC(=N)N)NC(=O)[C@H](CCC(=O)O)NC(=O)[C@@H](NC(=O)[C@H](C)NC(=O)[C@@H]1CCCNC(=O)C[C@H](NC(=O)[C@H](CCCNC(=N)N)NC(=O)CC[C@H](NC(=O)CCCCCCCCCCCCCCCCCCC(=O)O)C(=O)O)C(=O)NCC(=O)N[C@@H]([C@@H](C)O)C(=O)N[C@@H](C)C(=O)N[C@@H]([C@@H](C)O)C(=O)N1)[C@@H](C)O
B4: Ref. 3 (peptide)
peptide: {C20 diacid-γGlu}-RDGTAT[Orn]ATERLA[Aad]FLQRSSF[Sar]A[NMeI]LSSTEVGSNT[Hyp]-NH2
SMILES: CC[C@H](C)[C@@H](C(=O)N[C@@H](CC(C)C)C(=O)N[C@@H](CO)C(=O)N[C@@H](CO)C(=O)N[C@H](C(=O)N[C@@H](CCC(=O)O)C(=O)N[C@H](C(=O)NCC(=O)N[C@@H](CO)C(=O)N[C@@H](CC(N)=O)C(=O)N[C@H](C(=O)N1C[C@H](O)C[C@H]1C(N)=O)[C@@H](C)O)C(C)C)[C@@H](C)O)N(C)C(=O)[C@H](C)NC(=O)CN(C)C(=O)[C@H](Cc1ccccc1)NC(=O)[C@H](CO)NC(=O)[C@H](CO)NC(=O)[C@H](CCCNC(=N)N)NC(=O)[C@H](CCC(N)=O)NC(=O)[C@H](CC(C)C)NC(=O)[C@H](Cc1ccccc1)NC(=O)[C@H](CCCC(=O)O)NC(=O)[C@H](C)NC(=O)[C@H](CC(C)C)NC(=O)[C@H](CCCNC(=N)N)NC(=O)[C@H](CCC(=O)O)NC(=O)[C@@H](NC(=O)[C@H](C)NC(=O)[C@H](CCCN)NC(=O)[C@@H](NC(=O)[C@H](C)NC(=O)[C@@H](NC(=O)CNC(=O)[C@H](CC(=O)O)NC(=O)[C@H](CCCNC(=N)N)NC(=O)CC[C@H](NC(=O)CCCCCCCCCCCCCCCCCCC(=O)O)C(=O)O)[C@@H](C)O)[C@@H](C)O)[C@@H](C)O
B5: Ref. 4 (peptide)
peptide: {C20 diacid-γGlu}-RCGTATCATERLA[Aad]FLQRSSF[Sar]A[NMeI]LSSTEVGSNT[Hyp]-NH2
modifications: disulfide 2-7
SMILES: CC[C@H](C)[C@@H](C(=O)N[C@@H](CC(C)C)C(=O)N[C@@H](CO)C(=O)N[C@@H](CO)C(=O)N[C@H](C(=O)N[C@@H](CCC(=O)O)C(=O)N[C@H](C(=O)NCC(=O)N[C@@H](CO)C(=O)N[C@@H](CC(N)=O)C(=O)N[C@H](C(=O)N1C[C@H](O)C[C@H]1C(N)=O)[C@@H](C)O)C(C)C)[C@@H](C)O)N(C)C(=O)[C@H](C)NC(=O)CN(C)C(=O)[C@H](Cc1ccccc1)NC(=O)[C@H](CO)NC(=O)[C@H](CO)NC(=O)[C@H](CCCNC(=N)N)NC(=O)[C@H](CCC(N)=O)NC(=O)[C@H](CC(C)C)NC(=O)[C@H](Cc1ccccc1)NC(=O)[C@H](CCCC(=O)O)NC(=O)[C@H](C)NC(=O)[C@H](CC(C)C)NC(=O)[C@H](CCCNC(=N)N)NC(=O)[C@H](CCC(=O)O)NC(=O)[C@@H](NC(=O)[C@H](C)NC(=O)[C@@H]1CSSC[C@H](NC(=O)[C@H](CCCNC(=N)N)NC(=O)CC[C@H](NC(=O)CCCCCCCCCCCCCCCCCCC(=O)O)C(=O)O)C(=O)NCC(=O)N[C@@H]([C@@H](C)O)C(=O)N[C@@H](C)C(=O)N[C@@H]([C@@H](C)O)C(=O)N1)[C@@H](C)O

The binders below were run against recombinant human calcitonin receptor (hCT-R) (human), P30988 (assay: cell-based or functional assay).
recombinant human calcitonin receptor (hCT-R) (human), P30988, sequence (P30988 25-474): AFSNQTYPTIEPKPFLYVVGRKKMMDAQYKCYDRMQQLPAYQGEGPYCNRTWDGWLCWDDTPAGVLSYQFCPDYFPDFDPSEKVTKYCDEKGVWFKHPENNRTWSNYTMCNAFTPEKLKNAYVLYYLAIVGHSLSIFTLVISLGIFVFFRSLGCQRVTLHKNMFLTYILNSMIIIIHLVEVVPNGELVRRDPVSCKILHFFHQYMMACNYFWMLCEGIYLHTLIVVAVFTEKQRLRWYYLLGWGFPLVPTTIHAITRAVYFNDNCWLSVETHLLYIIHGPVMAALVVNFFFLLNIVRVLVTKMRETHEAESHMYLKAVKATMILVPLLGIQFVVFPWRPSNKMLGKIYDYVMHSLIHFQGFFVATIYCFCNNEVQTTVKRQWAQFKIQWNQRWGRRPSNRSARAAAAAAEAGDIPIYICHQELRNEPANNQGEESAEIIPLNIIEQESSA

Row | hCT-R EC50 [nM] (cAMP formation, 1321N1 cells expressing hCT-R) | Binder
1 | 0.289 nM | B1
2 | 0.019 nM | B2
3 | 0.327 nM | B3
4 | 18.2 nM | B4
5 | 0.075 nM | B5

Each binder was assayed against recombinant human amylin 3 receptor (hAMYR3) (human), P30988 (assay: cell-based or functional assay).
recombinant human amylin 3 receptor (hAMYR3) (human), P30988, sequence (P30988 25-474, chain 1 of 2): as the sequence (P30988 25-474) above
recombinant human amylin 3 receptor (hAMYR3) (human), P30988, sequence (O60896 24-148, chain 2 of 2, further chain): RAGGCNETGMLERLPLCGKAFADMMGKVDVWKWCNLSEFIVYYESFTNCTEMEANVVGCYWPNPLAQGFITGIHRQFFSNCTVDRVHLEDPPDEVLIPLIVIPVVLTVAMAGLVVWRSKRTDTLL

Row | hAMYR3 EC50 [nM] (cAMP formation, 1321N1 cells expressing hAMYR3) | Binder
6 | 0.032 nM | B1
7 | 0.003 nM | B2
8 | 0.011 nM | B3
9 | 13.2 nM | B4
10 | 0.031 nM | B5

— patent publication US20180071366A1
